Test results published in US20240132578A1.

What was measured:
Assay in all cases: cell-based or functional assay
[1] = target: HIV-1 JRCSF envelope glycoprotein (Env) on pseudovirus (HIV-1) (UniProt P20871)
[2] = target: HIV-1 93UG077 envelope glycoprotein (Env) on pseudovirus (HIV-1)
[3] = target: HIV-1 MGRM-A-010 envelope glycoprotein (Env) on pseudovirus (HIV-1)
[4] = target: HIV-1 NL43 envelope glycoprotein (Env) on pseudovirus (HIV-1)
[5] = target: HIV-1 MGRM-C-028 envelope glycoprotein (Env) on pseudovirus (HIV-1)
[6] = target: HIV-1 APV17 envelope glycoprotein (Env) on pseudovirus (HIV-1)
[7] = target: HIV-1 MGRM-D-018 envelope glycoprotein (Env) on pseudovirus (HIV-1)
[8] = target: HIV-1 MGRM-AG-005 envelope glycoprotein (Env) on pseudovirus (HIV-1)
[9] = target: HIV-1 93IN905 envelope glycoprotein (Env) on pseudovirus (HIV-1)
[10] = target: HIV-1 APV6 envelope glycoprotein (Env) on pseudovirus (HIV-1)
[11] = target: HIV-1 MGRM-C-026 envelope glycoprotein (Env) on pseudovirus (HIV-1)
[12] = target: HIV-1 92TH021 envelope glycoprotein (Env) on pseudovirus (HIV-1)
[13] = target: HIV-1 MGRM-D-001 envelope glycoprotein (Env) on pseudovirus (HIV-1)
[14] = target: HIV-1 JRFL envelope glycoprotein (Env) on pseudovirus (HIV-1)
[15] = target: HIV-1 CMU02 envelope glycoprotein (Env) on pseudovirus (HIV-1)
[16] = target: panel of 22 HIV-1 pseudoviruses of Table 52
[17] = target: HIV-1 92UG005 envelope glycoprotein (Env) on pseudovirus (HIV-1)
[18] = target: aMLV envelope protein on pseudovirus (negative control virus)
[19] = target: HIV-1 92UG024 envelope glycoprotein (Env) on pseudovirus (HIV-1)
[20] = target: HIV-1 94UG103 envelope glycoprotein (Env) on pseudovirus (HIV-1)
[21] = target: HIV-1 MGRM-C-027 envelope glycoprotein (Env) on pseudovirus (HIV-1)
[22] = target: HIV-1 APV13 envelope glycoprotein (Env) on pseudovirus (HIV-1)
[23] = target: HIV-1 92BR020 envelope glycoprotein (Env) on pseudovirus (HIV-1)
[24] = target: HIV-1 92RW020 envelope glycoprotein (Env) on pseudovirus (HIV-1)

B1: PGT-135 (5343_B08; 5344_E16) (antibody, V domains shown)
VH: QLQMQESGPGLVKPSETLSLSCTVSGDSIRGGEWGDKDYHWGWVRHSAGKGLEWIGSIHWRGTTHYKESLRRRVSMSIDTSRNWFSLRLASVTAADTAVYFCARHRHHDVFMLVPIAGWFDVWGPGVQVTVSS
VL: EIVMTQSPDTLSVSPGETVTLSCRASQNINKNLAWYQYKPGQSPRLVIFETYSKIAAFPARFVASGSGTEFTLTINNMQSEDVAVYYCQQYEEWPRTFGQGTKVDIK
IC50, pseudovirus neutralization [1]: 0.113 µg/mL
IC50, pseudovirus neutralization [2]: > 10 µg/mL
IC50, pseudovirus neutralization [3]: > 10 µg/mL
IC50, pseudovirus neutralization [4]: 6.79 µg/mL
IC50, pseudovirus neutralization [5]: 2.16 µg/mL
IC50, pseudovirus neutralization [6]: > 10 µg/mL
IC50, pseudovirus neutralization [7]: 0.0433 µg/mL
IC50, pseudovirus neutralization [8]: > 10 µg/mL
IC50, pseudovirus neutralization [9]: 0.0183 µg/mL
IC50, pseudovirus neutralization [10]: > 10 µg/mL
IC50, pseudovirus neutralization [11]: 0.0123 µg/mL
IC50, pseudovirus neutralization [12]: > 10 µg/mL
IC50, pseudovirus neutralization [13]: > 10 µg/mL
IC50, pseudovirus neutralization [14]: > 10 µg/mL
IC50, pseudovirus neutralization [15]: > 10 µg/mL
% neutralized [16]: 54%
median IC50, pseudovirus neutralization [16]: 0.11 µg/mL
IC50, pseudovirus neutralization [17]: > 10 µg/mL
IC50, pseudovirus neutralization [18]: > 10 µg/mL
IC50, pseudovirus neutralization [19]: 0.0139 µg/mL
IC50, pseudovirus neutralization [20]: > 10 µg/mL
IC50, pseudovirus neutralization [21]: > 10 µg/mL
IC50, pseudovirus neutralization [22]: 0.545 µg/mL

B2: 5147_N06 (PGT-130) human monoclonal antibody (antibody, V domains shown)
VH: QVQLQESGPGLVKPAETLSLTCSVSGESINTGHYYWGWVRQVPGKGLEWIGHIHYTTAVLHNPSLKSRLTIKIYTLRNQITLRLSNVTAADTAVYHCVRSGGDILYYYEWQKPHWFSPWGPGIHVTVSS
VL: QSALTQPPSASGSLGQSVTISCNGTSSDIGGWNFVSWYQQFPGRAPRLIIFEVNKRPSGVPGRFSGSKSGNSASLTVSGLQSDDEGQYFCSSLFGRWDVVFGGGTKLTVL
IC50, neutralization of pseudovirus [1]: 0.0089 µg/mL
IC80, neutralization of pseudovirus [1]: 0.0317 µg/mL
IC90 (neutralization of pseudovirus) [1]: 0.0669 µg/mL
IC95, neutralization of pseudovirus [1]: 0.134 µg/mL
IC50, neutralization of pseudovirus [2]: > 10 µg/mL
IC80, neutralization of pseudovirus [2]: > 10 µg/mL
IC90 (neutralization of pseudovirus) [2]: > 10 µg/mL
IC95, neutralization of pseudovirus [2]: > 10 µg/mL
IC50, neutralization of pseudovirus [3]: 0.0054 µg/mL
IC80, neutralization of pseudovirus [3]: 0.0251 µg/mL
IC90 (neutralization of pseudovirus) [3]: 0.0643 µg/mL
IC95, neutralization of pseudovirus [3]: 0.164 µg/mL
IC50, neutralization of pseudovirus [23]: 1.12 µg/mL
IC80, neutralization of pseudovirus [23]: > 10 µg/mL
IC90 (neutralization of pseudovirus) [23]: > 10 µg/mL
IC95, neutralization of pseudovirus [23]: > 10 µg/mL
IC50, neutralization of pseudovirus [4]: > 10 µg/mL
IC80, neutralization of pseudovirus [4]: > 10 µg/mL
IC90 (neutralization of pseudovirus) [4]: > 10 µg/mL
IC95, neutralization of pseudovirus [4]: > 10 µg/mL
IC50, neutralization of pseudovirus [5]: > 10 µg/mL
IC80, neutralization of pseudovirus [5]: > 10 µg/mL
IC90 (neutralization of pseudovirus) [5]: > 10 µg/mL
IC95, neutralization of pseudovirus [5]: > 10 µg/mL
IC50, neutralization of pseudovirus [6]: > 10 µg/mL
IC80, neutralization of pseudovirus [6]: > 10 µg/mL
IC90 (neutralization of pseudovirus) [6]: > 10 µg/mL
IC95, neutralization of pseudovirus [6]: > 10 µg/mL
IC50, neutralization of pseudovirus [7]: 0.0378 µg/mL
IC80, neutralization of pseudovirus [7]: 0.289 µg/mL
IC90 (neutralization of pseudovirus) [7]: 2.31 µg/mL
IC95, neutralization of pseudovirus [7]: > 10 µg/mL
IC50, neutralization of pseudovirus [24]: 0.014 µg/mL
IC80, neutralization of pseudovirus [24]: 0.508 µg/mL
IC90 (neutralization of pseudovirus) [24]: 3.68 µg/mL
IC95, neutralization of pseudovirus [24]: > 10 µg/mL
IC50, neutralization of pseudovirus [8]: 0.947 µg/mL
IC80, neutralization of pseudovirus [8]: > 10 µg/mL
IC90 (neutralization of pseudovirus) [8]: > 10 µg/mL
IC95, neutralization of pseudovirus [8]: > 10 µg/mL
IC50, neutralization of pseudovirus [9]: 0.0182 µg/mL
IC80, neutralization of pseudovirus [9]: 0.272 µg/mL
IC90 (neutralization of pseudovirus) [9]: 1.31 µg/mL
IC95, neutralization of pseudovirus [9]: 5.48 µg/mL
IC50, neutralization of pseudovirus [10]: > 10 µg/mL
IC80, neutralization of pseudovirus [10]: > 10 µg/mL
IC90 (neutralization of pseudovirus) [10]: > 10 µg/mL
IC95, neutralization of pseudovirus [10]: > 10 µg/mL
IC50, neutralization of pseudovirus [11]: 0.0173 µg/mL
IC80, neutralization of pseudovirus [11]: 0.263 µg/mL
IC90 (neutralization of pseudovirus) [11]: 1.32 µg/mL
IC95, neutralization of pseudovirus [11]: 6.13 µg/mL
IC50, neutralization of pseudovirus [12]: 0.0082 µg/mL
IC80, neutralization of pseudovirus [12]: 0.0261 µg/mL
IC90 (neutralization of pseudovirus) [12]: 0.0513 µg/mL
IC95, neutralization of pseudovirus [12]: 0.0963 µg/mL
IC50, neutralization of pseudovirus [13]: > 10 µg/mL
IC80, neutralization of pseudovirus [13]: > 10 µg/mL
IC90 (neutralization of pseudovirus) [13]: > 10 µg/mL
IC95, neutralization of pseudovirus [13]: > 10 µg/mL
IC50, neutralization of pseudovirus [14]: 0.0346 µg/mL
IC80, neutralization of pseudovirus [14]: 0.751 µg/mL
IC90 (neutralization of pseudovirus) [14]: 5.72 µg/mL
IC95, neutralization of pseudovirus [14]: > 10 µg/mL
IC50, neutralization of pseudovirus [15]: > 10 µg/mL
IC80, neutralization of pseudovirus [15]: > 10 µg/mL
IC90 (neutralization of pseudovirus) [15]: > 10 µg/mL
IC95, neutralization of pseudovirus [15]: > 10 µg/mL
IC50, neutralization of pseudovirus [17]: 0.474 µg/mL
IC80, neutralization of pseudovirus [17]: > 10 µg/mL
IC90 (neutralization of pseudovirus) [17]: > 10 µg/mL
IC95, neutralization of pseudovirus [17]: > 10 µg/mL
IC50, neutralization of pseudovirus [18]: > 10 µg/mL
IC80, neutralization of pseudovirus [18]: > 10 µg/mL
IC90 (neutralization of pseudovirus) [18]: > 10 µg/mL
IC95, neutralization of pseudovirus [18]: > 10 µg/mL
IC50, neutralization of pseudovirus [19]: > 10 µg/mL
IC80, neutralization of pseudovirus [19]: > 10 µg/mL
IC90 (neutralization of pseudovirus) [19]: > 10 µg/mL
IC95, neutralization of pseudovirus [19]: > 10 µg/mL
IC50, neutralization of pseudovirus [20]: 0.635 µg/mL
IC80, neutralization of pseudovirus [20]: > 10 µg/mL
IC90 (neutralization of pseudovirus) [20]: > 10 µg/mL
IC95, neutralization of pseudovirus [20]: > 10 µg/mL
IC50, neutralization of pseudovirus [21]: 0.0052 µg/mL
IC80, neutralization of pseudovirus [21]: 0.0318 µg/mL
IC90 (neutralization of pseudovirus) [21]: 0.106 µg/mL
IC95, neutralization of pseudovirus [21]: 0.464 µg/mL
IC50, neutralization of pseudovirus [22]: 0.0345 µg/mL
IC80, neutralization of pseudovirus [22]: 0.573 µg/mL
IC90 (neutralization of pseudovirus) [22]: 2.88 µg/mL
IC95, neutralization of pseudovirus [22]: > 10 µg/mL
